Target: T1, Enhancer of zeste homolog 2 (EZH2) (human, UniProt Q15910 1-746, limits assumed)
T1 construct: Endogenous protein in SET2 cells
Experiment: co-immunoprecipitation of endogenous EZH2 and BAP1 in SET2 cells with Western blot, in presence of benzonase
Excerpt: FIG. 13A-L. BAP1 depletion leads to an increase in PRC2 component expression, increased H4K20me1 and deubiquitination of L3MBTL2. (a) Co-immunoprecipitation of endogenous EZH2 and BAP1 in SET2 cells followed by Western blot analysis (performed in presence of benzonase to inhibit interactions dependent on DNA). (b) Bap1, Ezh2 and Suz12 expression by qRT-PCR from sorted granulocyte-macrophage progenitor (GMP; Lin⁻ c-Kit⁺Sca1⁻CD34′Fcγ⁺). (c) Western blot analysis of Bap1 and Ezh2 in bone marrow cells from Bap1 KO and control mice. (d) H4K20me1 quantification from histone mass spectrometry experiments. (e) Cell viability as assessed by Cell Titer Glo viability assay and (f) Annexin V assays for SETD8 overexpression experiments in BAP1 wild-type (MSTO-211H, Meso10) and mutant cell lines H226, deletion; H2452 catalytic mutation). (g) Quantitative qPCR for SETD8 and EZH2 in BAP1 mutant cells with SETD8 overexpression. (h) Western blot analysis for SETD8 and EZH2 in a BAP1 wild-type cell line. (i) Cell Titer Glo assay in cells treated with DMSO or 5, 10, 20 μM BVT594. (j) L3MBTL2 and BAP1 expression in BAP1 wild-type (Met5a, JMN) and mutant mesothelioma cell lines (H226, H2452, H28). (k) 293T cells overexpressing Myc-His tagged ubiquitin and L3MBTL2 cDNA and varying levels of BAP1 (0, 5 μg, 2.5 μg, 1 μg). […] Statistics were calculated with Student t-test; *p<0.05, **p<0.005; ±SEM values reported. […]

T1 sequence (Q15910 whole entry): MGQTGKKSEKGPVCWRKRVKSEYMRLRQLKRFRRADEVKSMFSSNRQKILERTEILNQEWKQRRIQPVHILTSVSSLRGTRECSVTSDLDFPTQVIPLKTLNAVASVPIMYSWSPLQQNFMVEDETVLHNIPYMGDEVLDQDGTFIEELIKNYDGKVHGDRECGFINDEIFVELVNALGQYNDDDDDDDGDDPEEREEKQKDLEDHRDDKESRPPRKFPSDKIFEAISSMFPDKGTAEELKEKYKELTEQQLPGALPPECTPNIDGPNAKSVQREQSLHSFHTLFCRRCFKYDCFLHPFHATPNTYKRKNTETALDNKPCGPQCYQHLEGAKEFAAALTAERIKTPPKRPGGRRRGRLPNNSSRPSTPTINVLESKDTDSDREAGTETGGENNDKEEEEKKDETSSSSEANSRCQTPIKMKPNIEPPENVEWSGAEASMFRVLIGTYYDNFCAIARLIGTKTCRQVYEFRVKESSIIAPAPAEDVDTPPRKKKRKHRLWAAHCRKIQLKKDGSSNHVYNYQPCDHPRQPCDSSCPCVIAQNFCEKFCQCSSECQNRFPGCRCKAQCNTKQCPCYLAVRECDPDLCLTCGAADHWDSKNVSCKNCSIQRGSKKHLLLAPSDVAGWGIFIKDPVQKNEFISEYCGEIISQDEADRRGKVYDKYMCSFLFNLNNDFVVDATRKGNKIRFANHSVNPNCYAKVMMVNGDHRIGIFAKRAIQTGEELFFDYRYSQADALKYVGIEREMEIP

binding result: no binding
B1: BRCA1 associated protein-1 (BAP1) (enzyme, human, UniProt Q92560 1-729, looked up)
chain: MNKGWLELESDPGLFTLLVEDFGVKGVQVEEIYDLQSKCQGPVYGFIFLFKWIEERRSRRKVSTLVDDTSVIDDDIVNNMFFAHQLIPNSCATHALLSVLLNCSSVDLGPTLSRMKDFTKGFSPESKGYAIGNAPELAKAHNSHARPEPRHLPEKQNGLSAVRTMEAFHFVSYVPITGRLFELDGLKVYPIDHGPWGEDEEWTDKARRVIMERIGLATAGEPYHDIRFNLMAVVPDRRIKYEARLHVLKVNRQTVLEALQQLIRVTQPELIQTHKSQESQLPEESKSASNKSPLVLEANRAPAASEGNHTDGAEEAAGSCAQAPSHSPPNKPKLVVKPPGSSLNGVHPNPTPIVQRLPAFLDNHNYAKSPMQEEEDLAAGVGRSRVPVRPPQQYSDDEDDYEDDEEDDVQNTNSALRYKGKGTGKPGALSGSADGQLSVLQPNTINVLAEKLKESQKDLSIPLSIKTSSGAGSPAVAVPTHSQPSPTPSNESTDTASEIGSAFNSPLRSPIRSANPTRPSSPVTSHISKVLFGEDDSLLRVDCIRYNRAVRDLGPVISTGLLHLAEDGVLSPLALTEGGKGSSPSIRPIQGSQGSSSPVEKEVVEATDSREKTGMVRPGEPLSGEKYSPKELLALLKCVEAEIANYEACLKEEVEKRKKFKIDDQRRTHNYDEFICTFISMLAQEGMLANLVEQNISVRRRQGVSIGRLHKQRKPDRRKRSRPYKAKRQ
notes: Immunoprecipitated from cell lysates; It is endogenous in the human leukemia line SET2

Source: patent US20170138946A1 (Memorial Sloan Kettering, published 2017)
